According to article PMC7299334, “Molecular basis of force-from-lipids gating in the mechanosensitive channel MscS” (eLife, 2019):

Biological target: the molecule itself
Experiment: cryo-EM structure; single particle cryo-EM of MscS in MSP1 E3D1 nanodiscs, POPC:POPG 4:1; 0.01% fluorinated octyl maltoside added; C7 symmetry in final refinement (the His-tagged sample also processed without symmetry, C1)

B1: MscS-Cryst (Δ2–26 MscS) (natural protein, E. coli, UniProt P0C0S1 1-286, looked up)
chain: MYAVNIVAALAIIIVGLIIARMISNAVNRLMISRKIDATVADFLSALVRYGIIAFTLIAALGRVGVQTASVIAVLGAAGLAVGLALQGSLSNLAAGVLLVMFRPFRAGEYVDLGGVAGTVLSVQIFSTTMRTADGKIIVIPNGKIIAGNIINFSREPVRRNEFIIGVAYDSDIDQVKQILTNIIQSEDRILKDREMTVRLNELGASSINFVVRVWSNSGDLQNVYWDVLERIKREFDAAGISFPYPQMDVNFKRVKEDKAA
notes: Small-conductance mechanosensitive channel MscS, E. coli, lacking the N-terminal anchor domain (residues 2-26 removed); The tag is surmised from the vector and from the statement that the purification was the same; also called MscS ∆2–27; MscS ∆1–27; source: E. coli MJF465 (pQE70), purified as the wild type, reconstituted in MSP1 E3D1 nanodiscs (POPC:POPG)
binding result: binds

B2: E. coli small-conductance mechanosensitive channel MscS with N-terminal 6xHis tag (natural protein, UniProt P0C0S1 1-286, looked up)
chain: MEDLNVVDSINGAGSWLVANQALLLSYAVNIVAALAIIIVGLIIARMISNAVNRLMISRKIDATVADFLSALVRYGIIAFTLIAALGRVGVQTASVIAVLGAAGLAVGLALQGSLSNLAAGVLLVMFRPFRAGEYVDLGGVAGTVLSVQIFSTTMRTADGKIIVIPNGKIIAGNIINFSREPVRRNEFIIGVAYDSDIDQVKQILTNIIQSEDRILKDREMTVRLNELGASSINFVVRVWSNSGDLQNVYWDVLERIKREFDAAGISFPYPQMDVNFKRVKEDKAA
notes: Small-conductance mechanosensitive channel MscS, E. coli, full length; also called 6xHis-MscS-ND; MscS-ND; not shown: His6, N-terminal, kept
stoichiometry N: 7
